Assay results reported in patent publication US20100015637A1 (AbbVie / Abbott, published 2010).

Assays:
[1] = target: human PlGF-1 comprising amino acids 1-137 produced in human embryonic kidney cells (human) (UniProt P49763); assay: … sandwich, capture MAb04, detection pAb264; antigen 250 pg/mL
[2] = target: CHO human PlGF-1 fragment (comprising amino acids 17-131; ATCC PTA-8540) (human) (UniProt P49763); assay: as above
[3] = target: human PlGF-1 fragment (comprising amino acids 17-131) produced in human embryonic kidney cells (human) (UniProt P49763); assay: as above
[4] = target: recombinant human PlGF-1 (comprising amino acids 1-131) expressed in E. coli (R&D Systems) (human) (UniProt P49763); assay: as above
[5] = target: CHO human PlGF-1 comprising amino acids 1-137 (human PlGF-1-His (1-131), CHO 6305) (human) (UniProt P49763); assay: as above
[6] = target: human PlGF-1 comprising amino acids 1-137 produced in human embryonic kidney cells (human) (UniProt P49763); assay: … sandwich, capture MAb04, detection pAb264; antigen 60 pg/mL
[7] = target: CHO human PlGF-1 fragment (comprising amino acids 17-131; ATCC PTA-8540) (human) (UniProt P49763); assay: as above
[8] = target: human PlGF-1 fragment (comprising amino acids 17-131) produced in human embryonic kidney cells (human) (UniProt P49763); assay: as above
[9] = target: recombinant human PlGF-1 (comprising amino acids 1-131) expressed in E. coli (R&D Systems) (human) (UniProt P49763); assay: as above
[10] = target: CHO human PlGF-1 comprising amino acids 1-137 (human PlGF-1-His (1-131), CHO 6305) (human) (UniProt P49763); assay: as above
[11] = target: human PlGF-1 comprising amino acids 1-137 produced in human embryonic kidney cells (human) (UniProt P49763); assay: … sandwich, capture MAb04, detection pAb264; antigen 1500 pg/mL
[12] = target: CHO human PlGF-1 fragment (comprising amino acids 17-131; ATCC PTA-8540) (human) (UniProt P49763); assay: as above
[13] = target: human PlGF-1 fragment (comprising amino acids 17-131) produced in human embryonic kidney cells (human) (UniProt P49763); assay: as above
[14] = target: recombinant human PlGF-1 (comprising amino acids 1-131) expressed in E. coli (R&D Systems) (human) (UniProt P49763); assay: as above
[15] = target: CHO human PlGF-1 comprising amino acids 1-137 (human PlGF-1-His (1-131), CHO 6305) (human) (UniProt P49763); assay: as above
[16] = target: human PlGF-1 comprising amino acids 1-137 produced in human embryonic kidney cells (human) (UniProt P49763); assay: … sandwich, capture MAb04, detection pAb264; antigen 15 pg/mL
[17] = target: CHO human PlGF-1 fragment (comprising amino acids 17-131; ATCC PTA-8540) (human) (UniProt P49763); assay: as above
[18] = target: human PlGF-1 fragment (comprising amino acids 17-131) produced in human embryonic kidney cells (human) (UniProt P49763); assay: as above
[19] = target: recombinant human PlGF-1 (comprising amino acids 1-131) expressed in E. coli (R&D Systems) (human) (UniProt P49763); assay: as above
[20] = target: CHO human PlGF-1 comprising amino acids 1-137 (human PlGF-1-His (1-131), CHO 6305) (human) (UniProt P49763); assay: as above
[21] = target: human PlGF-1 comprising amino acids 1-137 produced in human embryonic kidney cells (human) (UniProt P49763); assay: … sandwich, capture MAb04, detection pAb264; antigen 0 pg/mL (blank)
[22] = target: CHO human PlGF-1 fragment (comprising amino acids 17-131; ATCC PTA-8540) (human) (UniProt P49763); assay: as above
[23] = target: human PlGF-1 fragment (comprising amino acids 17-131) produced in human embryonic kidney cells (human) (UniProt P49763); assay: as above
[24] = target: recombinant human PlGF-1 (comprising amino acids 1-131) expressed in E. coli (R&D Systems) (human) (UniProt P49763); assay: as above
[25] = target: CHO human PlGF-1 comprising amino acids 1-137 (human PlGF-1-His (1-131), CHO 6305) (human) (UniProt P49763); assay: as above
[26] = target: human PlGF-1 comprising amino acids 1-137 produced in human embryonic kidney cells (human) (UniProt P49763); assay: … sandwich, capture MAb04, detection pAb264; antigen 750 pg/mL
[27] = target: CHO human PlGF-1 fragment (comprising amino acids 17-131; ATCC PTA-8540) (human) (UniProt P49763); assay: as above
[28] = target: human PlGF-1 fragment (comprising amino acids 17-131) produced in human embryonic kidney cells (human) (UniProt P49763); assay: as above
[29] = target: recombinant human PlGF-1 (comprising amino acids 1-131) expressed in E. coli (R&D Systems) (human) (UniProt P49763); assay: as above
[30] = target: CHO human PlGF-1 comprising amino acids 1-137 (human PlGF-1-His (1-131), CHO 6305) (human) (UniProt P49763); assay: as above

Sequence of CHO human PlGF-1 fragment (comprising amino acids 17-131; ATCC PTA-8540) (human) (P49763 other isoform, or with tags, fused parts or gaps limits assumed): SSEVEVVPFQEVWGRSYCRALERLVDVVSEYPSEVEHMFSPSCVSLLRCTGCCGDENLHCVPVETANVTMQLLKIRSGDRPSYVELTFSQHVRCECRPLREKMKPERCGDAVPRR
Sequence of human PlGF-1 fragment (comprising amino acids 17-131) produced in human embryonic kidney cells (human) (P49763 other isoform, or with tags, fused parts or gaps limits assumed): as above
Sequence of human PlGF-1 comprising amino acids 1-137 produced in human embryonic kidney cells (human) (P49763 other isoform, or with tags, fused parts or gaps): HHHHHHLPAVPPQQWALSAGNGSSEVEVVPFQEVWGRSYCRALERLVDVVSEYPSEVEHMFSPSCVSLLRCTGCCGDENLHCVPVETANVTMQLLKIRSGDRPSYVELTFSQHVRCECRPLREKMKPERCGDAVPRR
Sequence of CHO human PlGF-1 comprising amino acids 1-137 (human PlGF-1-His (1-131), CHO 6305) (human) (P49763 other isoform, or with tags, fused parts or gaps): as above

RLU [1]: 539000 RLU | RLU [2]: 293000 RLU | RLU [3]: 382000 RLU | RLU [4]: 570000 RLU | RLU [5]: 246000 RLU | RLU [6]: 159000 RLU | RLU [7]: 89500 RLU | RLU [8]: 112000 RLU | RLU [9]: 169000 RLU | RLU [10]: 80100 RLU | RLU [11]: 2.05e+06 RLU | RLU [12]: 1.3e+06 RLU | RLU [13]: 1.64e+06 RLU | RLU [14]: 2.19e+06 RLU | RLU [15]: 1.13e+06 RLU | RLU [16]: 49700 RLU | RLU [17]: 34200 RLU | RLU [18]: 39500 RLU | RLU [19]: 51900 RLU | RLU [20]: 32100 RLU | RLU [21]: 18800 RLU | RLU [22]: 18900 RLU | RLU [23]: 18700 RLU | RLU [24]: 19000 RLU | RLU [25]: 19100 RLU | RLU [26]: 1.26e+06 RLU | RLU [27]: 752000 RLU | RLU [28]: 957000 RLU | RLU [29]: 1.36e+06 RLU | RLU [30]: 644000 RLU
Substance: rat monoclonal antibody 04 (Rat anti-Human PlGF clone number 358932, R&D Systems)
